Laboratory results published in paper PMC12375108.

Experiments:
[1] = molecular target: GST-tagged E. coli hinT H101N (E. coli) (UniProt P0ACE7); experiment: BLI; GST-hinT (90 nM) immobilised on anti-GST biosensors; sucA-AMP 500 to 7.81 nM, unmodified sucA at 500 nM; 10 mM Tris pH 8, 150 mM NaCl, 0.1% Triton X-100; KD from steady-state responses, one site
[2] = molecular target: GST-tagged H. sapiens hinT H112N (human) (UniProt P49773); experiment: as above
[3] = molecular target: AMPylated GlnA (glutamine synthetase), recombinant (E. coli) (UniProt P0A9C5); experiment: cryo-EM structure; GlnA (4.68 mg/ml) mixed with hinT (3.29 mg/ml), 1:3 molar ratio of monomers; 10 mM Tris pH 8, 150 mM NaCl, 2 mM DTT

Sequence of GST-tagged H. sapiens hinT H112N (human) (P49773 whole entry H112N): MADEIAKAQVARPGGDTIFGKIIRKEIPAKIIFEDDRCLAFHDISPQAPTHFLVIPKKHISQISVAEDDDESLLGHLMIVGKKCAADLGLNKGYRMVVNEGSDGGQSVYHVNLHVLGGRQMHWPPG

Kd [1]	Kd [2]	stoichiometry N (hinT dimers per GlnA dodecamer) [3]	Substance
27 nM	10 nM		AMPylated sucA (from UniProt P0AFG3 1-933) (enzyme)
		< 6	E. coli hinT H101N (untagged) (from UniProt P0ACE7 1-119) (enzyme)
